In patent US20250215091A1, “Anti-GAL3 Antibodies and Compositions” (Les Laboratoires Servier, priority 2022, published 2025):

What was measured:
[1] = system: murine model of HOCI-induced fibrosis; assay: HOCI-induced murine fibrosis model: skin thickness; format: in vivo, mice
plasma IL-6 = assay: HOCI-induced murine fibrosis model: plasma IL-6 (MSD); format: in vivo, mice; settings: first experiment, day 42; vs HOCI group; FIG. 9
Procedure: (§1) In a first experiment, control mice (n=12) received a daily intradermal injection of 300 μL of sterile phosphate buffer saline (PBS) for 5 consecutive days per week, for a duration of 42 days. HOCI alone and HOCI with antibody (HOCI-antibody) treated mice (n=12 per group) received a daily intradermal injection of 300 μL of HOCI for 5 consecutive days per week, for a duration of 42 days. Antibody-treated mice also received a subcutaneous injection of 20 mg/kg antibody, starting at day minus one and every 5 days between day 5 and day 40. Each antibody was solubilized in sterile, endotoxin-free PBS before injection. In a second experiment, the same protocol was applied, except that duration of the study was 63 days and antibodies were given every 7 days starting at day minus 1 until day 62.
(§2) Mice that received daily injection of HOCI were also treated by intratracheal instillation of 0.5 mg/kg of TD139 compound (HOCI-TD139), a small molecule Gal3 inhibitor. In a first experiment, the administrations started from day 21 and the compound was given every 3 days until day 39. In a second experiment, the administrations started from day 20 and the compound was given every 3 days until day 62. TD139 was initially dissolved in 100% DMSO then diluted 50-fold in endotoxin-free PBS before administration.
(§3) In the first experiment, a mixed effect model with repeated measurements was performed on Control group, HOCI treated group, HOCI-antibody- and HOCI-TD139-treated groups. The impact of HOCI administration on plasma IL-6 and IL-5 levels was evaluated compared to the control group. The impact of antibody and TD139 treatments was compared to the HOCI group (FIG. 9). IL-6 and IL-5 were quantified by using the MSD technology from Mesoscale.

plasma IL-5 = assay: HOCI-induced murine fibrosis model: plasma IL-5 (MSD); format: in vivo, mice; settings: first experiment, day 42; vs HOCI group; FIG. 9
Procedure: as §1, §2, §3

plasma Gal3 = assay: HOCI-induced murine fibrosis model: plasma Gal3 (ELISA); format: in vivo, mice; settings: first experiment, day 42; FIG. 10
Procedure: as §1, §2
In the first experiment, the plasma levels of Gal3 were measured at day minus 1 (before antibody administration) and at termination day (day 42) using a mouse Galectin-3 DuoSet ELISA kit (R&D Systems, DY1197) according to the manufacturer's instructions. Plasma samples were diluted 1:200 in order to fit with the dynamic range of the assay.

[2] = system: murine model of bleomycin-induced fibrosis; assay: Bleomycin-induced murine lung fibrosis model: body weight and body weight metrics; format: in vivo, mice
Procedure: Control bleomycin mice named ‘Bleo’ received an administration of 1.65 mg/kg bleomycin by the oropharyngeal route on Day 1. […] Antibody-treated mice also received an administration of 1.65 mg/kg bleomycin by the oropharyngeal route on Day 1 and a subcutaneous injection of 20 mg/kg antibody, starting on day minus one and on days 4, 8, 12, 16 and 20. Each antibody was solubilized in sterile, endotoxin-free PBS before injection. Mice that received bleomycin were also treated by oropharyngeal administration of 0.5 mg/kg of TD139 compound (Bleo-TD139), a small molecule Gal3 inhibitor, starting on day 12 and every 2 days until day 20. TD139 was initially dissolved in 100% DMSO.
Mice were weighed daily. Their growth curves are represented on FIG. 12. Control mice had normal growth with a mean percent increase of 6.4% of their initial body weight measured on day minus 1.
Body weight metrics were assessed by using two parameters called Time to weight growth (TWG) and Time to baseline (TTB), shown on FIG. 13. Time to weight growth corresponds to the point of inflection when mice show an ascending growth curve and start to regain weight within the course of the experiment. Time to baseline corresponds to the number of days required for mice to recover their initial body weight (day minus 1). The median TWG was 10 days for the untreated bleomycin group. […] TD139 compound had no efficacy on this parameter (p-value 0.53).

rat model of ARDS [3] = assay: Rat ARDS model (LPS challenge): neutrophils counts in BALF; format: in vivo; settings: antibodies 14 mg/kg x3 prior to LPS; dexamethasone 10 mg/kg oral; vs LPS group; FIG. 16
In short: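 Rats dosed with antibody 14 mg/kg or PBS on days −11, −6 and −1, then LPS 0.25 mg/kg subcutaneously on day 1; reference group got oral dexamethasone 10 mg/kg 2 h before LPS. Neutrophils counted in bronchoalveolar lavage fluid.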

rat model of ARDS [4] = assay: Rat ARDS model (LPS challenge): total BALF protein (BCA assay); format: in vivo; settings: antibodies 14 mg/kg x3 prior to LPS; dexamethasone 10 mg/kg oral; vs LPS group; FIG. 17
In short: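 Rats dosed with antibody at 14 mg/kg (in sterile PBS) or PBS on days −11, −6 and −1, then LPS 0.25 mg/kg s.c. on day 1; dexamethasone 10 mg/kg oral 2 h before LPS as reference. Total protein in BALF quantified by BCA assay, compared with the LPS + PBS group.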

plasma TNF alpha = assay: Rat ARDS model (LPS challenge): plasma TNF alpha (MSD); format: in vivo; settings: 4 h following LPS challenge; vs LPS group; FIG. 18
In short: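 Rats given anti-Gal3 antibodies (14 mg/kg in PBS) or PBS on days −11, −6 and −1, then challenged with LPS 0.25 mg/kg s.c. on day 1; dexamethasone 10 mg/kg p.o. 2 h pre-LPS as reference. Plasma sampled 4 h post-LPS; TNF alpha quantified by MSD.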

[5] = bleomycin 1.65 mg/kg, antibody 20 mg/kg s.c.

B1: E07: anti-Gal3 monoclonal antibody, IgG1 format; VH SEQ ID NO 42, VL SEQ ID NO 43 (antibody, V domains shown)
VH: EVQLVESGGSLVKPGGSLRLSCAASGFTFSNYNMNWVRQAPGKGLEWISNIYGSSRYIYYADFVKGRFTISRDNAKNSLYLQMNSLRAEDTAVYYCVRSYYGGMDVWGRGTLVTVSS
VL: QSVLTQPASVSGSPGQSITISCAGTSSDVGGYYSVSWYQQHPGKAPKLMIYYDSNRPSGVSNRFSGSKSGNTASLTISGLQAEDEADYYCSSYTGYSTRVFGGGTKLEIK
Q: What does the source list for B1?
A: HOCI-induced increase in skin thickness ([1]; first experiment, 42 days, antibody 20 mg/kg s.c., TD139 0.5 mg/kg intratracheal, vs HOCI group, FIG. 7A): significantly reduced; day from which reduction of skin thickness was significant ([1]; first experiment, sustained effect until day 42): 21 days; HOCI-induced increase in skin thickness ([1]; second experiment, 63 days, antibody 20 mg/kg s.c. every 7 days, sustained effect until day 63, FIG. 7B): significantly reduced; day from which reduction of skin thickness was significant ([1]; second experiment, sustained effect until day 63): 7 days; plasma IL-6 levels (plasma IL-6): significantly decreased the plasma IL-6 levels to values similar to those of control mice; plasma IL-5 levels (plasma IL-5): decreased significantly; plasma Gal3 levels (plasma Gal3): restored the plasma Gal3 levels to values similar to those of the control group; body weight status on day 21 [2, 5]: full weight recovery; day from which body weight reached values close to those of control mice [2, 5]: 18 days; recovery of body weight ([2]; bleomycin 1.65 mg/kg, antibody 20 mg/kg s.c., FIG. 12): more rapid recovery of body weight; reduction of median Time to weight growth (TWG) ([2]; median TWG 10 days for untreated bleomycin group, FIG. 13): 2 days; neutrophils counts in BALF (rat model of ARDS [3]): also decreased; total BALF protein (rat model of ARDS [4]): also decreased with a statistic significance; TNF alpha plasma levels (plasma TNF alpha): also decreased, displaying an intermediary profile
